Article PMC11233918
Where two headings read alike, the source gives them in different places.

Assays:
Assay in all cases: EMSA
SUMO-TDP-43 RRM1,2 [1] = target: T1, SUMO-TDP-43 RRM1,2 (human, UniProt Q13148 102-269)
SUMO-TDP-43 RRM1,2 [2] = target: T1, SUMO-TDP-43 RRM1,2; remark: listed apart in the source
SUMO-TDP-43 RRM1,2 [3] = target: T1, SUMO-TDP-43 RRM1,2; remark: listed apart in the source
SUMO-TDP-43 RRM1,2 [4] = target: T1, SUMO-TDP-43 RRM1,2; remark: listed apart in the source

T1 sequence (Q13148 102-269): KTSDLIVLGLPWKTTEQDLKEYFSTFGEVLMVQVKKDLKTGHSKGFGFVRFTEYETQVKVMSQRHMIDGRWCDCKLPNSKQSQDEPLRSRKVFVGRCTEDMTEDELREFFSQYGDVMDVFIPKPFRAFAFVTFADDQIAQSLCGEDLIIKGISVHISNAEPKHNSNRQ

Does GUGUGUGUGUGU (ssRNA, see Table S1 (not in material)) [(GU)6] bind (SUMO-TDP-43 RRM1,2 [1])?
Result: binds

Does AAAAAAAAAAAAAAAAAAAAAAAAAAAAAAAA (ssRNA, see Table S1 (not in material)) [A32] bind (SUMO-TDP-43 RRM1,2 [2])?
Result: no binding

Does CACACACACACACACACACACACACACACACA (ssRNA, see Table S1 (not in material)) [(CA)16] bind (SUMO-TDP-43 RRM1,2 [2])?
Result: no binding

Does GUGUGAAUGAAUGUGUGAAUGAAU (ssRNA, 2'-O-methyl and phosphorothioate; positions in Table S1 (not in material)) [('AUG12')2] bind (SUMO-TDP-43 RRM1,2 [3])?
Result: binds

Does GUGUGUGUGUGUGUGUGUGUGUGUGUGUGUGU (ssRNA, 2'-O-methyl and phosphorothioate; positions in Table S1 (not in material)) [(GU)16] bind (SUMO-TDP-43 RRM1,2 [4])?
Result: binds
